{"source": "patent US20080267949A1", "about": "“Peptides capable of binding to serum proteins” (Ablynx N.V., priority 2006, published 2008)", "key": {"[1]": {"biological_target": "T1, human serum albumin (human, UniProt P02768 25-609)", "T1 construct": "Bought protein; also called HSA", "test": "SPR: biotinylated peptide captured on a streptavidin sensorchip, HSA injected for 4 min at 10 µl/min, reference-subtracted", "description": "Binding of the 2 synthetic peptides Ala-17D12-CDR3 and Cys-Ala-17D12-CDR3 to HSA was assessed by surface plasmon resonance. The biotinylated peptides are each captured on streptavidin-coated sensorchip SA T071122. HSA binding is assessed at various concentrations. The samples were injected for 4 min at a flow rate of 10 ul/min over the activated and reference surfaces to allow for binding to chip-bound antigen. Next, binding buffer without HSA is sent over the chip at the same flow rate to allow for dissociation of bound HSA. After 10 min, remaining bound analyte is removed by injecting regeneration solution (50 mM NaOH)."}, "[2]": {"biological_target": "T2, rhErbB2-Fc antigen (R&D Systems) (human, UniProt P04626 23-652)", "T2 construct": "Bought; also called HER2 antigen; Her-2 antigen; not shown: Fc part of the bought fusion; not described", "test": "SPR: rhErbB2-Fc on a CM5 chip (~3000 RU), 2D3 injected in the presence of 25 µM HSA (concentration of 2D3 not given)", "description": "(§1) FIG. 11: Surface plasmon resonance analysis of simultaneous binding of 2D3-17D12 fusion protein to HER2 antigen and human serum albumin (HSA). 2D3-17D12 fusion protein was pre-incubated or not with 1 and 5 μM HSA, followed by flow over immobilized 2D3 target antigen, rhErbB2-Fc. The dotted line represents the binding characteristics of 2D3 in presence of 25 μM HSA."}, "[3]": {"biological_target": "T3, human tumor necrosis factor α (human, UniProt P01375 77-233)", "T3 construct": "Negative control antigen; also called TNF", "T3 sequence (P01375 77-233 limits assumed)": "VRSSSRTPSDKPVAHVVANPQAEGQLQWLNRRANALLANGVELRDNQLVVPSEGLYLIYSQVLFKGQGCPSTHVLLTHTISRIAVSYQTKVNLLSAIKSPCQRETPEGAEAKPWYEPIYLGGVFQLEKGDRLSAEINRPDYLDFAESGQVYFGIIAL", "test": "phage binding assay on coated Maxisorp wells, 5 phage dilutions per peptide, Odyssey image", "description": "(§2) Binding of 17D12, as selected from primary screening after 2 selection rounds on HSA, to serum albumin of different species [mouse serum albumin (MSA, A3559, Sigma), cynomolgus serum albumin (CSA, in-house production), bovine serum albumin (BSA, A6003, Sigma) and HSA] and to negative control antigens [ovalbumin, human tumor necrosis factor α (TNF, in-house production)] was assessed using different phage concentrations. Additionally, similar binding studies were performed with two truncated variants of 17D12. Both peptides, i.e. 17D12-CDR3-NC (SEQ ID NO: 26) and 17D12-CDR3-C (SEQ ID NO;27), lack the flanking FR residues of 17D12 and the former is a non-constrained loop, whereas the latter is constrained (FIG. 4).\n(§3) The phage binding assay was performed essentially as described in example 4. Full length 17D12 peptide as well as truncated peptides, 17D12-CDR3-NC and 17D12-CDR3-C, bind dose-dependently to HSA and CSA, whereas reactivity to MSA and BSA was not apparent in the assay performed (FIG. 6). There is no significant non-specific binding of 17D12 and 17D12-CDR3-NC to irrelevant proteins tested (ovalbumin and TNF). In contrast, there is a subtle degree of non-specific binding with the constrained truncated peptide."}, "[4]": {"biological_target": "T4, bovine serum albumin (bovine, UniProt P02769 25-607)", "T4 construct": "also called BSA", "T4 sequence (P02769 25-607 limits assumed)": "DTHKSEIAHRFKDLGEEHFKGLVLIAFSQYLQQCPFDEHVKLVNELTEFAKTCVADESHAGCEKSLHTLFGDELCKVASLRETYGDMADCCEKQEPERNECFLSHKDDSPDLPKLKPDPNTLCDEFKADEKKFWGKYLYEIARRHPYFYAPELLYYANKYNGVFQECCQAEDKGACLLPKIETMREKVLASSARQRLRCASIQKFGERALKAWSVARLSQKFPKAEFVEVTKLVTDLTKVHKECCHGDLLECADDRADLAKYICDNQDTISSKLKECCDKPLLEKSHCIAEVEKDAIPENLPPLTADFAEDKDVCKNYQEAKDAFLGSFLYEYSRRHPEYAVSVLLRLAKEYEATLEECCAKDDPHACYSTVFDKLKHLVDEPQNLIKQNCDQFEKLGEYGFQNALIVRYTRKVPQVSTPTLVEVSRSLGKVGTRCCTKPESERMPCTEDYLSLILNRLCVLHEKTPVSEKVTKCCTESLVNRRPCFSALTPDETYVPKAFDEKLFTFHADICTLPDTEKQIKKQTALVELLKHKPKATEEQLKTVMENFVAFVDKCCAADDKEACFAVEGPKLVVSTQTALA", "test": "phage binding assay on coated Maxisorp wells, 5 phage dilutions per peptide, Odyssey image", "description": "as §2, §3"}, "[5]": {"biological_target": "T5, ovalbumin (negative control antigen) (UniProt P01012 2-386)", "T5 construct": "Bought protein", "T5 sequence (looked up)": "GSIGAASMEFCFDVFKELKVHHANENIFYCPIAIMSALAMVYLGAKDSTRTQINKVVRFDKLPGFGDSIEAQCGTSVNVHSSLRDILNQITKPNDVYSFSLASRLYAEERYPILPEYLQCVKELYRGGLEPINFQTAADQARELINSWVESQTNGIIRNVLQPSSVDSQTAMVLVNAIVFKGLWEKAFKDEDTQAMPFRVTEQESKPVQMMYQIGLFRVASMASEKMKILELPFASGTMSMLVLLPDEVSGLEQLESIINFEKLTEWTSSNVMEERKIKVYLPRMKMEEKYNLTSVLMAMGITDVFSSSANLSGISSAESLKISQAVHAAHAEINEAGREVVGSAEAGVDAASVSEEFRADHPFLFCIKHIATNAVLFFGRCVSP", "test": "phage binding assay on coated Maxisorp wells, 5 phage dilutions per peptide, Odyssey image", "description": "as §2, §3"}, "[6]": {"biological_target": "T6, mouse serum albumin (mouse, UniProt P07724 25-608)", "T6 construct": "also called MSA", "T6 sequence (P07724 25-608 limits assumed)": "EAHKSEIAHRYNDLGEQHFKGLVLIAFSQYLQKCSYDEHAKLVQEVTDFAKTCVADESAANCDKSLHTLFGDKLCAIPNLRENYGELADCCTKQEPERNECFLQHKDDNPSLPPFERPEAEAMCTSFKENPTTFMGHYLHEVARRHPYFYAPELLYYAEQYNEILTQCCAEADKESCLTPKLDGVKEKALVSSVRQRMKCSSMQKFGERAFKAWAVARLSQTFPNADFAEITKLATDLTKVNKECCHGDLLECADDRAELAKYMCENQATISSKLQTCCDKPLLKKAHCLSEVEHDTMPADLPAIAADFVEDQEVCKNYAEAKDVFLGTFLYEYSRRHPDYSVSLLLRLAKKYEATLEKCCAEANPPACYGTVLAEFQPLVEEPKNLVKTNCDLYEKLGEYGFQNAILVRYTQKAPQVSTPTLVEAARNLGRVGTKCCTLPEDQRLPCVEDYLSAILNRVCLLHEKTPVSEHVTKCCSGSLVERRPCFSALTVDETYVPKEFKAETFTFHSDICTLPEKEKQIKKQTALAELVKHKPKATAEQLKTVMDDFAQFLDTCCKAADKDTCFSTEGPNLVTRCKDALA", "test": "phage binding assay on coated Maxisorp wells, 5 phage dilutions per peptide, Odyssey image", "description": "as §2, §3"}, "[7]": {"biological_target": "T7, cynomolgus serum albumin (cynomolgus, UniProt A2V9Z4 25-608)", "T7 construct": "also called CSA; cynoSA", "T7 sequence (A2V9Z4 25-608 limits assumed)": "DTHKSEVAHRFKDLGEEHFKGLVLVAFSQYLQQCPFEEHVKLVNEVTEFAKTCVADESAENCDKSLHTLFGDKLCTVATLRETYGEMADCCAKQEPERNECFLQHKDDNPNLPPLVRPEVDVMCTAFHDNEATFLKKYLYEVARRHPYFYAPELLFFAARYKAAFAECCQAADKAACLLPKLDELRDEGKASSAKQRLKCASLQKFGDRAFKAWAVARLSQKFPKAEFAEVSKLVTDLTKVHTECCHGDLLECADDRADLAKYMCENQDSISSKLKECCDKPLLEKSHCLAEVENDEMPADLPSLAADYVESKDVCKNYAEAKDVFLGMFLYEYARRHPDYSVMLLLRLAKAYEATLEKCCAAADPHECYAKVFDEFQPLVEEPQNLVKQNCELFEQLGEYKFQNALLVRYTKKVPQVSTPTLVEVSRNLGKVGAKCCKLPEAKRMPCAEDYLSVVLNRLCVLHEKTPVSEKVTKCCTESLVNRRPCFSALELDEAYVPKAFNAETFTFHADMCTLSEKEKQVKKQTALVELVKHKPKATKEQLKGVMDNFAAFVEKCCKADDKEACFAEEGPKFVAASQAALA", "test": "phage binding assay on coated Maxisorp wells, 5 phage dilutions per peptide (concentrations not given), Odyssey image", "description": "as §2, §3"}, "[8]": {"biological_target": "T1, human serum albumin", "test": "phage binding assay: 10 µg/mL HSA coated on Maxisorp, M13 phage displaying the peptide on pIII in 1/2 dilution series, anti-M13 + goat anti-mouse IRDye700, Odyssey intensity", "description": "After two selection rounds, monoclonal phage were screened for binding on HSA versus negative control antigen, ovalbumin (A5378, Sigma). Wells of a Maxisorp microtiter plate (Nunc) were coated using 10 μg/mL HSA or ovalbumin and blocked with SuperBlock T20 PBS Blocking Buffer (Pierce) to prevent non-specific binding. Phages, produced in 96-well plate, were diluted 1/10 in 1:1 (v:v) Superblock T20 PBS Blocking Buffer:PBS+0.05% Tween-20 and incubated on both HSA and ovalbumin. Bound phages were detected using anti-M13 (GE Healthcare) and goat anti-mouse IRDye700 (Rockland) and signals were read-out on Odyssey (LI-COR Biosciences). […] This peptide is referred to as 17D12. Its full amino acid sequence is given in SEQ ID NO: 1, and its encoding nucleotide sequence is given in SEQ ID NO:2. The amino acid sequence of the CDR3 loop is given in SEQ ID NO:3.\nThe phage binding assay was performed essentially as described in example 3. Phages, produced in 10 mL culture volume, were incubated on both HSA and ovalbumin in a ½ dilution series, starting with 7.5×10¹¹ phages/mL. […] Non-specific binding to ovalbumin is slightly higher for the constrained truncated peptide."}, "[9]": {"biological_target": "T5, ovalbumin (negative control antigen)", "test": "phage binding assay: ovalbumin coated on Maxisorp, M13 phage in 1/2 dilution series from 10^12 phages/mL, Odyssey intensity", "description": "The phage binding assay to HSA and ovalbumin was performed essentially as described in example 4. Phages, produced in 10 mL culture volume, were incubated on both HSA and ovalbumin in a ½ dilution series, starting with 10¹² phages/mL. Dose-dependent binding to HSA was retained upon fusion of the peptide 17D12 at the C-terminus of a non-albumin binding intact VHH in the presence or absence of a GlySer linker (FIG. 9)."}, "[10]": {"biological_target": "T2, rhErbB2-Fc antigen (R&D Systems)", "test": "SPR: rhErbB2-Fc on a CM5 chip (~3000 RU), 2D3-17D12 injected alone or pre-incubated with 1 or 5 µM HSA (concentration of 2D3-17D12 not given)", "description": "as §1"}, "[11]": {"tested_on": "irrelevant protein", "test": "Surface plasmon resonance control on CM5 chip coated with irrelevant protein", "assay_type": "binding", "details": "2.5 μM injected; 2400 RU irrelevant protein"}, "[12]": {"biological_target": "T8, human serum albumin (HSA) (Homo sapiens, UniProt P02768)", "T8 construct": "purchased Sigma A5763", "assay_type": "binding", "description": "FIG. 10: Surface plasmon resonance analysis of the binding of Nanobody® (2D3) and Nanobody® fusion peptide (2D3-17D12) on human serum albumin (HSA). Coating of the chip (CM5) was performed by amine coupling using NHS/EDC for activation and ethanolamine for deactivation (Biacore amine coupling kit). hip coated with 7000 RU human serum albumin (Sigma, 99% pure) and 2500 RU irrelevant protein antigen. 2D3 and 2D3-17D12 was successively injected over the chip in increasing concentrations (1.25 μM, 2.5 μM and 5 μM). HBS-EP was used as flow buffer at a rate of 10 μl min-1.20 μl of sample was injected for 20 s.\nThe 2D3-17D12 fusion protein […] […] […] (SEQ ID NO: 30) was expressed in E. coli TG1 cells. The fusion protein was purified by IMAC/SEC and binding to HSA was assessed in BIAcore™ 3000. Therefore, a dilution series of 2D3-17D12 fusion protein and 2D3 Nanobody was injected on a CM5 chip coated with high density HSA (7000RU). […] Calculated affinity of 2D3-17D12 for HSA is ˜10 μM."}, "[13]": {"biological_target": "T9, rhErbB2-Fc antigen (Homo sapiens, UniProt P04626)", "T9 construct": "purchased R&D Systems", "test": "Surface plasmon resonance: simultaneous binding to HER2 and HSA, chip coated with rhErbB2-Fc", "details": "pre-incubated with HSA (1 and 5 μM); ~3000 RU rhErbB2-Fc", "description": "as §1\nTo examine whether the 2D3 Nanobody and the 17D12 CDR3 can simultaneously bind their respective target antigen (Her-2 antigen for 2D3 Nanobody, albumin for 17D12 CDR3), the following experiment was performed. 2D3-17D12 fusion protein was pre-incubated or not with increasing concentration of HSA and then injected on a CM5 chip coated with rhErbB2-Fc antigen (R&D Systems) at a density of ˜3000 RU."}}, "note": "Ends that are not written are not given here. c2 linker = not defined here", "data": [{"molecule": "Ac-CAAASYSDYDVFGGGTDFGP-{c2 linker-biotin} (reading uncertain, Captured on a streptavidin-coated sensor chip; HSA injected as analyte; also called PEO-101.5)", "note": "[Cys-Ala-17D12-CDR3 synthetic biotinylated peptide (acetyl-CAAASYSDYDVFGGGTDFGP-c2 linker-biotin)]", "values": [{"measurement": "binding result", "setting": "[1]", "value": "binds"}]}, {"molecule": "2D3 Nanobody (VHH that specifically binds to HER2) (VHH, also called VHH 2D3) VHH: EVQLVESGGSLVQPGGSLRLSCAASGFTFDDYAMSWVRQVPGKGLEWVSSINWSGTHTDYADSVKGRFTISRNNANNTLYLQMNSLKSEDTAVYYCAKNWRDAGTTWFEKSGSAGQGTQVTVSS", "values": [{"measurement": "binding result", "setting": "[2]", "value": "binds"}]}, {"molecule": "AAASYSDYDVFGGGTDFGPA (peptide, not shown: large carriers, not fully specified, Tested as phage)", "values": [{"measurement": "binding result", "setting": "[3]", "value": "no binding"}, {"measurement": "binding result", "setting": "[4]", "value": "no binding"}, {"measurement": "binding result", "setting": "[5]", "value": "no binding"}, {"measurement": "binding result", "setting": "[6]", "value": "no binding"}, {"measurement": "binding result", "setting": "[7]", "value": "binds"}, {"measurement": "EC50 (read off the curve)", "setting": "[8]", "value": "~7e+10", "unit": "phage/mL"}]}, {"molecule": "DTAVYYCNAAASYSDYDVFGGGTDFGPWGQGTQV (not fully specified (C-terminus), also called full length 17D12; not shown: library construct: followed by His6 and c-myc tags, a short Gly-Ala-Ala linker and M13 pIII)", "note": "[17D12 peptide (CDR3 loop with flanking FR3 and FR4 residues), expressed on pIII of M13 phage]", "values": [{"measurement": "binding result", "setting": "[3]", "value": "no binding"}, {"measurement": "binding result", "setting": "[4]", "value": "no binding"}, {"measurement": "binding result", "setting": "[6]", "value": "no binding"}, {"measurement": "binding result", "setting": "[7]", "value": "binds"}, {"measurement": "binding result", "setting": "[9]", "value": "no binding (tested: 100 x10^10 phage/mL)"}, {"measurement": "EC50 (read off the curve)", "setting": "[8]", "value": "~5e+10", "unit": "phage/mL"}]}, {"molecule": "Ac-AAASYSDYDVFGGGTDFGP-{c2 linker-biotin} (reading uncertain, Captured on a streptavidin-coated sensor chip; HSA injected as analyte; also called PEO-100)", "note": "[Ala-17D12-CDR3 synthetic biotinylated peptide (acetyl-AAASYSDYDVFGGGTDFGP-c2 linker-biotin)]", "values": [{"measurement": "binding result", "setting": "[1]", "value": "binds"}]}, {"molecule": "2D3-17D12 fusion protein (other, Soluble VHH-peptide fusion expressed in E. coli TG1 and purified by IMAC/SEC; also called Nanobody fusion peptide (2D3-17D12)) EVQLVESGGSLVQPGGSLRLSCAASGFTFDDYAMSWVRQVPGKGLEWVSSINWSGTHTDYADSVKGRFTISRNNANNTLYLQMNSLKSEDTAVYYCAKNWRDAGTTWFEKSGSAGQGTQVTVSSDTAVYYCNAAASYSDYDVFGGGTDFGPWGQGTQVGGGS", "values": [{"measurement": "binding result", "setting": "[10]", "value": "binds"}]}, {"molecule": "2D3-17D12: fusion of HER2-binding VHH 2D3 with HSA-binding peptide 17D12, expressed in E. coli TG1 (protein, 2D3-17D12 fusion protein) EVQLVESGGSLVQPGGSLRLSCAASGFTFDDYAMSWVRQVPGKGLEWVSSINWSGTHTDYADSVKGRFTISRNNANNTLYLQMNSLKSEDTAVYYCAKNWRDAGTTWFEKSGSAGQGTQVTVSSDTAVYYCNAAASYSDYDVFGGGTDFGPWGQGTQVGGGS", "values": [{"measurement": "Binding to irrelevant protein (SPR control)", "setting": "[11]", "value": "no specific binding was detected"}, {"measurement": "Kd", "setting": "[12]", "value": "~10", "unit": "µM"}, {"measurement": "Binding to HSA (SPR)", "setting": "[12]; 7000 RU HSA, injected at 1.25, 2.5 and 5 μM", "value": "dose-dependent binding"}, {"measurement": "Off-rates on rhErbB2-Fc, premixed with HSA compared to control injection", "setting": "[13]", "value": "slightly higher but comparable off-rates"}]}]}
